Here are results for 2 molecules from US20220324970A1 (Janssen / Centocor, published 2022).

The target in assay [1] is T1, human pIgR extracellular domain (ECD) (human, UniProt P01833 19-638).
T1 construct: also called hpIgR ECD
Nature of the assay: BLI, screen of the VHH clones generated from mpIgR antigen.
Target sequence in this assay (P01833 other isoform, or with tags, fused parts or gaps): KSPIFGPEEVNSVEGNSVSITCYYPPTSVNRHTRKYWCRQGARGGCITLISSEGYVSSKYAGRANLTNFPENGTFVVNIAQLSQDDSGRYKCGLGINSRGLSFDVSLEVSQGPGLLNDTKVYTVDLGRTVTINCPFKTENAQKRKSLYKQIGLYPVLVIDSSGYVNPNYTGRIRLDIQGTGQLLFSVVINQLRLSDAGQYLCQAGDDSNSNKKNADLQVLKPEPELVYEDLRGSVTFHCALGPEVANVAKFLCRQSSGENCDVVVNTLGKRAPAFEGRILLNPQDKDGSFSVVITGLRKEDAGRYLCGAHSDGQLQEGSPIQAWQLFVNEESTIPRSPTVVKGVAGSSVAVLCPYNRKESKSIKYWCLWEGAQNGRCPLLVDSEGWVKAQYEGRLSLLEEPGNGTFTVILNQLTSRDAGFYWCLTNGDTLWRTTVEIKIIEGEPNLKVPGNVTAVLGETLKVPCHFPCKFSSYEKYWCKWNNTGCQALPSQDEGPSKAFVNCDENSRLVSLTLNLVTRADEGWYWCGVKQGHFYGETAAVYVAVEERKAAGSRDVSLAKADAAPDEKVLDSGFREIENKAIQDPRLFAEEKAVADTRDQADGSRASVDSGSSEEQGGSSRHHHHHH

The target of assay [2] is T2, mouse pIgR extracellular domain (ECD) (mouse, UniProt O70570 19-645).
T2 construct: The entry ends with a HHHHHH tag; also called mpIgR; mpIgR ectodomain
T2 sequence: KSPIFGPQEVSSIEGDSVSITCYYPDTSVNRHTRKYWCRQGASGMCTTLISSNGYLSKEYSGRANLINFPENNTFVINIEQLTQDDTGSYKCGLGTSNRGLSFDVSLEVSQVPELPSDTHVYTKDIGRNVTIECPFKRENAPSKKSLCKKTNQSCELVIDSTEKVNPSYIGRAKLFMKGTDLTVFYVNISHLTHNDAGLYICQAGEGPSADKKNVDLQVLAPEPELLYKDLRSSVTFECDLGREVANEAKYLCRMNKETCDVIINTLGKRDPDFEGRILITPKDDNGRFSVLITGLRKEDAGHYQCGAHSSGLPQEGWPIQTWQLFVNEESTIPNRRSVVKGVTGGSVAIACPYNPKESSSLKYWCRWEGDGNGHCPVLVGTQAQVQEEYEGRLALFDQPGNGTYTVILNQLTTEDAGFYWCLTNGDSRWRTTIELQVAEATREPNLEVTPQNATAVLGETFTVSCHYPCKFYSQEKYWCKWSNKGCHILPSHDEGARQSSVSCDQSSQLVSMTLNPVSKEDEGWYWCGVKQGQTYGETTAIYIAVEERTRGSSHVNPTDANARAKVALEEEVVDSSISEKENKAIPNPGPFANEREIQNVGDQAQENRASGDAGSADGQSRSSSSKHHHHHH
The description is as above.

For assay [3], the target named is T1, human pIgR extracellular domain (ECD). Nature of the assay: BLI (Octet), VHH-mono-Fc and hpIgR ectodomain. A general note: In BLI a coated tip is dipped into the sample, and binding shifts an interference pattern.
Target sequence in this assay (P01833 other isoform, or with tags, fused parts or gaps): as the sequence (P01833 other isoform, or with tags, fused parts or gaps) above
The target is the same in assay [4]. Nature of the assay: ECL (MSD), hpIgR-ECD coated, anti-Fc detection.
Method: To check whether VHH recognizes a buried epitope on pIgR, EC₅₀ values were measured for VHH-mono-Fc molecules binding to hpIgR-ECD protein by electrochemiluminescence using two different detection antibodies, an anti-Fc antibody and an anti-VHH antibody. pIgR ECD (10 μg/ml in PBS) was coated on high-bind MSD plates for 2 hours at RT with 1000 rpm, incubated with blocking buffer for 1 hour at RT, incubated with VHH-mono-Fc molecules (increasing concentrations in PBS) for 2 hours at RT with 1000 rpm, washed 3× with PBT, incubated with ruthenylated secondary antibody (2 μg/ml in PBS) for 1 hour at RT with 1000 rpm, washed 3× with PBT and read plates in 40 ul reading buffer using the MSD imager. EC50 was calculated by fitting log VHH concentration versus log ECLU in Prism (Graphpad). The increase in EC₅₀ (>50-fold) due to anti-VHH detection was used as a measure to determine whether VHH recognized buried epitope on pIgR.
For assay [5] the target is unchanged. Nature of the assay: BLI; summary table, repeats Table 1; summary Table 4.
Target sequence in this assay (P01833 other isoform, or with tags, fused parts or gaps): as the sequence (P01833 other isoform, or with tags, fused parts or gaps) above
Assay [6] has the same target. Nature of the assay: BLI, HIS-tagged pIgR construct on anti-HIS biosensors.
Target sequence in this assay (P01833 other isoform, or with tags, fused parts or gaps): as the sequence (P01833 other isoform, or with tags, fused parts or gaps) above
Method: (§1) Bio-layer Interferometry was performed as follows. […] Data were collected with Octet Data Acquisition version 7.1.0.87 (ForteBio) and analyzed using Octet Data Analysis version 7.1 (ForteBio). To measure binding kinetics between VHH-mono-Fc molecules and HIS-tagged pIgR proteins, VHH-mono-Fc was immobilized on amine-reactive generation-2 (ARG2) biosensors according to manufacturer's instructions and increasing concentrations of pIgR proteins were exposed to sensor-immobilized VHH. In some cases, HIS-tagged pIgR proteins were immobilized on anti-HIS biosensors and exposed to increasing concentrations of VHH-mono-Fc molecules. Association and dissociation rates were measured by the shift in wavelength (nm). […] All reactions were performed at 25° C. in PBS.
(§2) (Full-length hpIgR ECD was purchased from R&D Systems.) The five constructs (D1-D2, D1, D1_tCDR1, D1_tCDR2, D1_tCDR3) were expressed and purified from HEK293 cells using immobilized metal ion affinity chromatography. Three hpIgR domain-1 CDR mutants (D1_tCDR1, D1_tCDR2, D1_tCDR3) contain respective teleost fish CDR on a hpIgR domain-1 framework. His-tagged pIgR constructs were immobilized on anti-HIS biosensors and binding of VHH-mono-Fc molecules to pIgR constructs were measured by bio-layer interferometry.
Assay [7] has as its target T3, hpIgR domain-1 with teleost fish CDR1 (hD1 tCDR1) (human, UniProt P01833 19-127, limits assumed).
T3 construct: CDR-swapped hpIgR domain-1 mutant, HIS-tagged, made in HEK293 cells; not shown: HIS tag
Described as above.

The target of assay [8] is T4, human pIgR extracellular domain 1 (D1) (human, UniProt P01833 19-127).
T4 construct: HIS-tagged construct made in HEK293 cells; also called hpIgR domain-1
Described as above.
Method: as §1, §2

Assay [9] addresses T5, human pIgR extracellular domain 1-domain 2 (D1-D2) (human, UniProt P01833 19-240).
T5 construct: HIS-tagged construct made in HEK293 cells
Described as above.
Method: as §1, §2

In assay [10] the target is T6, hpIgR domain-1 with teleost fish CDR3 (hD1 tCDR3) (human, UniProt P01833 19-127, limits assumed).
T6 construct: CDR-swapped hpIgR domain-1 mutant, HIS-tagged, made in HEK293 cells; not shown: HIS tag
The description is as above.

Assay [11] concerns the target T7, human pIgR, full-length, on cells (human, UniProt P01833 19-764). Nature of the assay: cell-based or functional assay.
For assay [12], the target named is T7, human pIgR, full-length, on cells. Nature of the assay: cell-based or functional assay. The source holds these as a separate data set.
Assay [13] concerns the target T8, human pIgR extracellular domain 4-domain 5 (D4-D5) (human, UniProt P01833 350-565).
T8 construct: HIS-tagged construct made in HEK293 cells; also called hpIgR domains 4-5
T8 chain: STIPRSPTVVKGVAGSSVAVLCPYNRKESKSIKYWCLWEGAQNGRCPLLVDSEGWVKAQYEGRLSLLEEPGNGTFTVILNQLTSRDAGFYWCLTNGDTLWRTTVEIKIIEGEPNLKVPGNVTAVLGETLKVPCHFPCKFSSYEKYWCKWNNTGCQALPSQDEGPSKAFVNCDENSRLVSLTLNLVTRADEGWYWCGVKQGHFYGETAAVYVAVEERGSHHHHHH
Nature of the assay: ECL (MSD) heat map, HIS-tagged construct captured via anti-HIS, anti-human-Fc detection.

Assay [14] has as its target T5, human pIgR extracellular domain …. Nature of the assay: BLI, relative to full-length hpIgR ECD.
Target sequence in this assay (P01833 other isoform, or with tags, fused parts or gaps limits assumed): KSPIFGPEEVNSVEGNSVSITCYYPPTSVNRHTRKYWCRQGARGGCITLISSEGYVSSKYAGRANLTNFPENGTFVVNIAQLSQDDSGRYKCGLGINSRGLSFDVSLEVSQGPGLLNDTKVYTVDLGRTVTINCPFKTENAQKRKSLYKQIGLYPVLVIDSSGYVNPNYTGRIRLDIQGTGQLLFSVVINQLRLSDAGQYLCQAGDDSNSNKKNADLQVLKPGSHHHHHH
Method: as §1, §2
Assay [15] concerns the target T6, hpIgR domain-1 with teleost fish CDR3 …. Nature of the assay: BLI, relative to full-length hpIgR ECD.
Target sequence in this assay (P01833 other isoform, or with tags, fused parts or gaps limits assumed): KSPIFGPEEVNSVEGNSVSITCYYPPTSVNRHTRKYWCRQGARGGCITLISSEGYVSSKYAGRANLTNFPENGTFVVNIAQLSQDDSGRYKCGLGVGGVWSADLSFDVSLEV
Method: as §1, §2
Assay [16] concerns the target T2, mouse pIgR extracellular domain (ECD). Nature of the assay: BLI, screen of the VHH clones generated from hpIgR antigen.
Assay [17] has as its target T1, human pIgR extracellular domain (ECD). Nature of the assay: BLI, HIS-tagged pIgR construct on anti-HIS biosensors; HIS-tagged hpIgR_ECD on anti-HIS biosensors, Table 3.
Target sequence in this assay (P01833 other isoform, or with tags, fused parts or gaps): as the sequence (P01833 other isoform, or with tags, fused parts or gaps) above
Method: as §1, §2
Assay [18] has the same target. Nature of the assay: BLI; summary table, repeats Table 1.
Target sequence in this assay (P01833 other isoform, or with tags, fused parts or gaps): as above

T7 sequence (P01833 19-764): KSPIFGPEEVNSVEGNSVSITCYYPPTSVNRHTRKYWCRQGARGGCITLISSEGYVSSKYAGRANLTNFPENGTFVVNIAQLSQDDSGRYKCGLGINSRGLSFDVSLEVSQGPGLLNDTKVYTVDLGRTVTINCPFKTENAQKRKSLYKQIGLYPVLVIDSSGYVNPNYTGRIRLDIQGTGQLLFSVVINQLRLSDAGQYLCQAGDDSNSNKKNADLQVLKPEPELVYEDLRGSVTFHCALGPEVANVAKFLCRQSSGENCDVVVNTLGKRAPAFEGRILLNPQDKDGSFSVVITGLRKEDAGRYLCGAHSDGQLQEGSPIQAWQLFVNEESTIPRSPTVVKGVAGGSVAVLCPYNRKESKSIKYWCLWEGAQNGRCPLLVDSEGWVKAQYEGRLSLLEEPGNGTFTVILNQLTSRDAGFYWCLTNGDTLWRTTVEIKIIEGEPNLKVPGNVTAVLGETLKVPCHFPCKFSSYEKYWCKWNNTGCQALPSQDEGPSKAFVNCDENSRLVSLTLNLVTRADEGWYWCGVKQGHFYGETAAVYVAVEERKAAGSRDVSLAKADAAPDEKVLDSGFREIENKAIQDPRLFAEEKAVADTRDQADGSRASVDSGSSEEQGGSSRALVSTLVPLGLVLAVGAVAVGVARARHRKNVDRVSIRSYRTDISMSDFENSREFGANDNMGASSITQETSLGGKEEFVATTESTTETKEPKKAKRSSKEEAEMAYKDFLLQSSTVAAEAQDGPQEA

B1: VHH2-linker-mono-Fc protein (Fc fusion)
chain: EVQVVESGGGLVQAGGSLKLACAAPGLTFSSYRMGWFRQAPGQEREFVAAIDWNGRGTYYRYYADSVKGRSTISRDNAKNTVYLQMNSLKPEDTAVYYCAATTVLTDPRVLNEYATWGQGTQVTVSSEPKTPKPQPQPQLQPQPNPTTESKSPKSPAPELLGGPSVFLFPPKPKDTLMISRTPEVTCVVVDVSHEDPEVKFNWYVDGVEVHNAKTKPREEQYNSTYRVVSVLTVLHQDWLNGKEYKCKVSNKALPAPIEKTISKAKGQPREPQVYTKPPSREEMTKNQVSLSCLVKGFYPSDIAVEWESNGQPENNYKTTVPVLDSDGSFRLASYLTVDKSRWQQGNVFSCSVMHEALHNHYTQKSLSLSPGK
notes: also called VHH2-mono-Fc; mpIgR_338
For the molecule B1, the Kd (usually the free concentration of one partner at which half of the binding sites on the other are occupied at equilibrium, for simple one-to-one binding) in [1] was 22 nM; in assay [2], 1 nM; in assay [3], 21 nM; in assay [5] it was 21 nM; in assay [6], 22 nM; in assay [7] it was 21.3 nM. Also, the Kd in [8] is 15.5 nM; in [9], 23 nM; in [10], 14.9 nM. In assay [4], the EC50 (as a rule, the concentration needed to bring the measured effect to its halfway point) was 4.2 nM. In addition, the “Transcytosis (Fold Incr.)” value in assay [11] amounted to 34.2 fold. Also, in assay [12], the “increase in their apical concentration relative to control VHH (MDCK-hpIgR monolayers)” value was greater than 10 fold. Also, the binding result in assay [13] is on record as “no binding (tested: 100 ug/ml (single concentration))”. The entries for the “Fold change in KD” value in [14] and in [15] were 1 fold and 0.7 fold, respectively.

B2: VHH3-linker-mono-Fc protein (Fc fusion)
chain: QLQLVESGGGLVQPGGSLRLSCAASGSIFSINVMGWYRQAPGKQRELVARINGGGITHYAESVKGRFTISRDNAKNTVYLQMNSLKPEDTAAYYCKADVFGSSGYVETYWGQGTQVTVSSEPKTPKPQPQPQLQPQPNPTTESKSPKSPAPELLGGPSVFLFPPKPKDTLMISRTPEVTCVVVDVSHEDPEVKFNWYVDGVEVHNAKTKPREEQYNSTYRVVSVLTVLHQDWLNGKEYKCKVSNKALPAPIEKTISKAKGQPREPQVYTKPPSREEMTKNQVSLSCLVKGFYPSDIAVEWESNGQPENNYKTTVPVLDSDGSFRLASYLTVDKSRWQQGNVFSCSVMHEALHNHYTQKSLSLSPGK
notes: made in CHO cells; also called VHH3-mono-Fc; hpIgR_021
With B2, the Kd in assay [16] is 40 nM; in [17] it was 10 nM; in assay [3] it was 5 nM; in [7] it was 77 nM; in [8], 7.7 nM; in assay [9], 13.3 nM. Moreover, the Kd was 7.5 nM in assay [10] and 5 nM in [18]. The molecule further showed a concentration for a half-maximal effect (EC50) in assay [4] of 0.5 nM. In addition, the “Transcytosis (Fold Incr.)” value in [11] stood at 2.6 fold. Moreover, the “Fold change in KD” value in [14] is 1.3 fold; in assay [15] it was 0.8 fold.
